# Results taken from patent US20170137818.
# pIC50: −log10 of the molar value.
# Target: autotaxin (ENPP2/NPP2) (Homo sapiens) (UniProt Q13822)
# Assay: inhibition
# [1] = NPP2 assay, no inhibition up to 1.0 uM
Sequence,pIC50 [1],"pIC50 (LysoPLD assay, table says 40N only (which pool not stated))"
ACACTCACAGGCGCTGGNNNNNNNNNNNNNNNNNNNNNNNNNNNNNNCGTGCATGGCCGCTAGT [DNA pool (SEQ 17)],< 6.00,
GTGGTCTAGCTGTACTCNNNNNNNNNNNNNNNNNNNNNNNNNNNNNNNNNNNNNNNNCCACAGTCAACGAGCTA [40N DNA pool (SEQ 1)],< 6.00,< 6.00
